In US20230287143A1 (published 2023):

T1: recombinant human BCMA-ECD-Fc fusion protein (ACRO Biosystems, #BC7-H82F0), biotinylated (human, UniProt Q02223 1-54, biotinylated with EZ-Link Sulfo-NHS-LC-Biotin (sites not given))
T1 construct: extracellular domain; Bought protein; also called biotinylated BCMA
T1 sequence (looked up): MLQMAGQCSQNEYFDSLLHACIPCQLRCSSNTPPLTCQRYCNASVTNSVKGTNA


Experiments:
[1] = molecular target: T1, recombinant human BCMA-ECD-Fc fusion …; test: BLI (Octet Red96e), biotinylated BCMA-ECD-Fc on SA sensor, binding protein 10-2.5 nM in solution, 1:1 global fitting
Procedure: In this example, the binding kinetics between the BCMA binding protein and BCMA were analyzed by the Biolayer Interferometry (BLI) technique using an Octet molecular interaction analyzer (ForteBio, Octet Red96e).
Two columns of SA sensors (8 sensors in each column; with the sensors in the first column referred to as the reference SA sensor and the sensors in the second column referred to as the test SA sensor) were firstly equilibrated in the equilibration buffer for 10 min. Then, the biotinylated BCMA were captured by test SA sensors with a capture height of 0.2 nm, and the reference SA sensors were immersed in the buffer for 30 s. The two arrays of sensors were combined with the test BCMA-binding protein at concentrations obtained by a two-fold dilution from 10 nM to 2.5 nM and a concentration of 0 nM. The sensors were combined with the test proteins for 180 s and then dissociated for 800 s.
When data analysis was performed using Octet Data Analysis software (Fortebio, version 11.0), the reference signals were subtracted by a double reference mode; the data were fitted by a “1:1 Global fitting” method, and the kinetic parameters of the binding of the antigen to the antigen-binding protein were calculated to obtain kₒₙ (1/Ms) values, kdis (1/s) values and KD (M) values.

human PD-L1 = molecular target: T2, human PD-L1 (human, UniProt Q9NZQ7 19-290); test: flow cytometry on CHO-K1/hPD-L1 cells
T2 construct: whole, on cells; also called CD274; B7-H1
T2 sequence (Q9NZQ7 19-290): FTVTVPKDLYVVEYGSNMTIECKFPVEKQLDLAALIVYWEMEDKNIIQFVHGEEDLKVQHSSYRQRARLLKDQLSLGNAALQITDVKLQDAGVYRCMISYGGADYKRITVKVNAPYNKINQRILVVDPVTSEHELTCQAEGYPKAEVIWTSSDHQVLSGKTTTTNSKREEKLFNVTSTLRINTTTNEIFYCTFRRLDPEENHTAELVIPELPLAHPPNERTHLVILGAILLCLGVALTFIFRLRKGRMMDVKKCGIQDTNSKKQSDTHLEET
Procedure: (§1) The cells were incubated at 4° C. for 1 h away from light. […] Then, the cells in each well were then rinsed twice with 200 μL of pre-cooled FACS buffer and centrifuged at 500 g at 4° C. for 5 min, and then the supernatant was discarded. Finally, a pre-cooled FACS buffer was added at 200 μL/well to resuspend the cells.

human CTLA4 = molecular target: T3, human CTLA4 (human, UniProt P16410 36-223); test: flow cytometry on CHO-K1/hCTLA4 cells
T3 construct: whole, on cells; also called CD152; CHO-K1/hCTLA4
T3 sequence (P16410 36-223): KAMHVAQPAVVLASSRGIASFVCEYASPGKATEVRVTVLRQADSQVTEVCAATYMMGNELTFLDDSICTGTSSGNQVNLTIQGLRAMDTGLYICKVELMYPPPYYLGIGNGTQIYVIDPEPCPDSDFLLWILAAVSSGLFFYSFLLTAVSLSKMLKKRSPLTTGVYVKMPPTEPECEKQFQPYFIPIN
Procedure: as §1

human 4-1BB = molecular target: T4, human 4-1BB (human, UniProt Q07011 24-255); test: flow cytometry on CHO-K1/hu 4-1BB cells
T4 construct: whole, on cells; also called CD137; TNFRSF9
T4 sequence (Q07011 24-255): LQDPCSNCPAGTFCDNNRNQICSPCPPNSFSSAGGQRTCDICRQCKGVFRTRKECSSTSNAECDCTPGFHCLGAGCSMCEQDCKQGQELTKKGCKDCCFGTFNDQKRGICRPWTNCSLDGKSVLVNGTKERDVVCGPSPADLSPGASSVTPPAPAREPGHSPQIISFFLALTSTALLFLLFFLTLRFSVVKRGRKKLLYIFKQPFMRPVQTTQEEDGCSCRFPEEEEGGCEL
Procedure: as §1, with “Specifically, the cells were digested and resuspended in a complete medium, and the cell density was adjusted to 2×10⁶ cells/mL. […] The cells” for “The cells”

| Kd [1] | koff [1] | kon [1] | binding result (human PD-L1) | Binder | other results |
| --- | --- | --- | --- | --- | --- |
| 0.0792 nM | 7.16e-05 s⁻¹ | 904000 M⁻¹ s⁻¹ |  | Anti-BCMA heavy-chain antibody PR001046_R2_4G10 (antibody, human IgG1, V domains shown, Fully human heavy-chain-only antibody (HCAb), bivalent, no light chain; also called PR004433) VH: EVQLVETGGGLIQPGGSLRLSCAASGFTVSDSYMTWVRQAPGKGLEWVSVIFSGGRTYYSDSVKGRFTISRDNAKNTLYLQMNSLRAEDTALYYCARRNYDDTRGTDVFDIWGQGTMVTVSS |  |
|  |  |  | binds | PR004268, PD-L1×4-1BB bispecific binding protein with the VH-IgG structure (structure 4) (bispecific antibody, 4-1BB VH (PR001760) at the N-terminus of the heavy chain of PD-L1 IgG (PR000265); linker GS_15; human IgG1 (LALA)) light: DIQMTQSPSTLSASVGDRVTVTCRASQSIYIWLAWYQQKPGKAPNLLIYKASSLETGVPSRFSGSGSGTEFTLTISSLQPDDFATYYCQQYYGSSRTFGQGTKVEIKRTVAAPSVFIFPPSDEQLKSGTASVVCLLNNFYPREAKVQWKVDNALQSGNSQESVTEQDSKDSTYSLSSTLTLSKADYEKHKVYACEVTHQGLSSPVTKSFNRGEC heavy: not shown |  |
| 0.0279 nM | 4.87e-05 s⁻¹ | 1.75e+06 M⁻¹ s⁻¹ |  | PR005744, BCMA×BCMA bispecific binding protein with the Fab-HCAb structure (structure 1) (bispecific antibody, human IgG1, kappa, no first linker; human IgG1 hinge and Fc) chain 1: QVQLVESGGGVVQPGRSLRLSCAATGFTFSSYGMYWVRQAPGKGLEWVAAIWNDGSNNYYADSVKGRFTISRDDSKNTLNLQMNSLRAEDTAMYYCARDRLPMASLRYFDWLGVMDAWGQGTSVTVSSASTKGPSVFPLAPSSKSTSGGTAALGCLVKDYFPEPVTVSWNSGALTSGVHTFPAVLQSSGLYSLSSVVTVPSSSLGTQTYICNVNHKPSNTKVDKKVEPKSC chain 2: not shown |  |
|  |  |  |  | Anti-CTLA4 heavy-chain antibody CL5v3 (antibody, human IgG1, V domains shown, Fully human heavy-chain-only antibody (HCAb), no light chain; also called PR000184) VH: EVQLVESGGGLIQPGGSLRLSCAVSGFTVSKNYMSWVRQAPGKGLEWVSVVYSGGSKTYADSVKGRFTISRDNSKNTLYLQMNSLRAEDTAVYYCARAVPHSPSSFDIWGQGTMVTVSS | binding result (human CTLA4): binds |
|  |  |  | binds | PR000701, PD-L1×4-1BB bispecific binding protein with the FIT-Ig structure (structure 5) (bispecific antibody, human IgG4 S228P, kappa, FIT-Ig, symmetric tetravalent, three different chains; PD-L1 Fab of PR000265, 4-1BB Fab of PR000197 close to Fc; human IgG4) chain 1: not shown chain 2: EVQLVESGGGLVQPGGSLRLSCAASGFTFSSYWMSWVRQAPGKGLEWVANIKQEGSEKYYVDSVKGRFTISRDNAKNSLYLQMNSLRAEDTAVYYCARDRAVAGAFDIWGQGTMVTVSSASTKGPSVFPLAPSSKSTSGGTAALGCLVKDYFPEPVTVSWNSGALTSGVHTFPAVLQSSGLYSLSSVVTVPSSSLGTQTYICNVNHKPSNTKVDKKVEPKSC light: not shown | binding result (human 4-1BB): binds |
